Where two headings read alike, the source gives them in different places.

Usually EC50 stands for the midpoint of the concentration-response curve. A word on the Kd: it is the equilibrium constant for the complex coming apart.

Assay [1] deals with T1, His-tagged recombinant human TNFR2 (human, UniProt P20333 23-257).
T1 chain: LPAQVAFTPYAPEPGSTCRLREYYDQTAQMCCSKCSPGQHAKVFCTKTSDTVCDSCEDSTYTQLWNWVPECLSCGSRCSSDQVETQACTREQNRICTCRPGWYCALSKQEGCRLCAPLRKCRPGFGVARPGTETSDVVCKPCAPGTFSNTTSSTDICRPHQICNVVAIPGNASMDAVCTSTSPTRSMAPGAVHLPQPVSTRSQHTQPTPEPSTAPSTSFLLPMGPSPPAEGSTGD
In words: ELISA. On the technique in general: An ELISA detects its analyte on a solid surface through an enzyme-linked reagent.

Assay [2] has as its target T1, His-tagged recombinant human TNFR2. In words: Octet BLI. Background: BLI is a label-free optical method that tracks binding on a fibre tip over time.
Assay [3] addresses T2, rhesus monkey TNFR2 expressed on CHO cells (CHO.mkHFB3) (rhesus monkey, UniProt F7GUU0 22-457).
T2 chain: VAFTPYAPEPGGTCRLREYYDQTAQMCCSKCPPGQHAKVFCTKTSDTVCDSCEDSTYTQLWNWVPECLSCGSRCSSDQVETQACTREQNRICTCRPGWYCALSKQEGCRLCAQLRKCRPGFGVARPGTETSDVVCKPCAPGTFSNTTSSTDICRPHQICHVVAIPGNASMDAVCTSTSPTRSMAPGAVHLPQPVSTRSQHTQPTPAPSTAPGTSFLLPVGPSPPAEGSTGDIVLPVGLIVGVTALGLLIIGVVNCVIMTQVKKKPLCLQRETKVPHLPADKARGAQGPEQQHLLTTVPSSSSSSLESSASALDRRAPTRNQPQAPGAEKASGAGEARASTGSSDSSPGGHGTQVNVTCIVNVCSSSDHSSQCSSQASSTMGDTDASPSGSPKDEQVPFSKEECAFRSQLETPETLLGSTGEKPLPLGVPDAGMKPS
Description: FACS cell binding.

Assay [4] concerns the target T3, human TNFR2 expressed on cells (CHO.hHFB3 / CHO.hTNFR2 cells; primary human T cells) (human, UniProt P20333 23-461).
T3 chain: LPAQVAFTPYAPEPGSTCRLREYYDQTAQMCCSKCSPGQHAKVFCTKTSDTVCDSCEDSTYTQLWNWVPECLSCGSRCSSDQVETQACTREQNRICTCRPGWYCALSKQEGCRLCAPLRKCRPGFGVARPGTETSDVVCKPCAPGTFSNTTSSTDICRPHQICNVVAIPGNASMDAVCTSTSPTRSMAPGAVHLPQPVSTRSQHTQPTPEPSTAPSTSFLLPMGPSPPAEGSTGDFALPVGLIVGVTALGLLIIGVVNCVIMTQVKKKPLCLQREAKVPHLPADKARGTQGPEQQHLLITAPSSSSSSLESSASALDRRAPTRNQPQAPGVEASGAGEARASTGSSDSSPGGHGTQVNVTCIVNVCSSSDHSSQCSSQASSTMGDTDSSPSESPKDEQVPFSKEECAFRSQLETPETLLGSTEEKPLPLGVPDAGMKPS
Description: FACS cell binding.

The target in assay [5] is T2, rhesus monkey TNFR2 expressed on CHO …. Description: FACS cell binding.
For assay [6], the target named is T1, His-tagged recombinant human TNFR2. In words: BLI (AHC biosensor).
The target in assay [7] is T3, human TNFR2 expressed on cells …. Description: FACS cell binding; IgG1AA format.
For assay [8] the target is unchanged. Description: FACS cell binding.
For assay [9], the target named is T2, rhesus monkey TNFR2 expressed on CHO …. In words: FACS cell binding.
Assay [10] has as its target T3, human TNFR2 expressed on cells …. Description: FACS cell binding; IgG1AA format.

B1: HFB3-1-hG1 (mouse monoclonal antibody) (antibody, V domains shown)
VH: EFQLQQSGPELVKPGASVKISCKASSYSFTDYNMNWVKQSNGKSLEWIGIIFPKYGTTSYNQKFKGKATLTVDQSSSTAYMQLNSLTSEDSAVYYCATDGGTWYFDVWGTGTTVTVSS
VL: QIVLTQSPALMSASPGEKVTMTCSASSSVTYMYWYQQKPRSSPKPWIYLTSNLASGVPARFSGSGSGTSYSLTISSMEAEDAATYYCQQWSSNPPTFGSGTKLEIKR
With B1, the 50% effective concentration (EC50) was determined as 0.06 nM in [1]; 5.37 nM in assay [3]; 0.48 nM in assay [4]; 0.6 nM in assay [5]; 0.905 nM in [7]. Also, the Kd came to 6.3 nM in [2] and 1.4 nM in assay [6].

B2: HFB3-18-hG1 (mouse monoclonal antibody) (antibody, V domains shown)
VH: EVKLEESGGGLVQPGGSMKLSCAASGFTFSDAWMDWVRQSPEKGLEWVAEVRNKANNHATYYAESVKGRFTISRDDSKSSVYLQMNSLRAEDTGIYYCTRSVGGYGTTYWYFDVWGTGTTVTVSS
VL: DIVMTQSPSSLSVSAGEKVTMSCKSSQNLLNSGNQKNYLAWYQQKPGQPPKLLIFGASTRESGVPDRFTGSGSGTDFTLTISSVQAEDLAVYYCQSEHSYPYTFGGGTKLEIKR
Take B2: the EC50 in assay [1] was 49.8 nM; in assay [4], 4.17 nM; in assay [5] it was 4.85 nM. Further, the dissociation constant Kd in [6] came out at 4.2 nM.

B3: HFB3-14hz1c-hG1 (humanized monoclonal antibody) (antibody, V domains shown)
VH: QVQLVQSGAEVKKPGSSVKVSCKASGYTFTDYYMNWVRQAPGQGLEWMGDINPNDGGTTYAQKFQGRVTITADESTSTAYMELSSLRSEDTAVYFCAREGNYYAYDVRVWYFDVWGQGTTVTVSS
VL: DIQMTQSPSSLSASVGDRVTITCGASQDIITYLNWYQQKPGKAVKLLIYSTSSLNSGVPSRFSGSGSGTDFTLTISSLQPEDFATYYCQQYSELPYTFGGGTKVELKR
As for B3, the Kd in assay [2] is 2.8 nM. Besides, the results for the 50% effective concentration (EC50) in [8], in [9] and in [10] were 1.77 nM, 0.7 nM and 2.9 nM, respectively.

B4: HFB3-14-hG1 (mouse monoclonal antibody) (antibody, V domains shown)
VH: EVQLQQSGPELVKPGASVRISCKASGYTFTDYYMNWVKQSHGKSLEWIGDINPNDGGTTYSQKFKGKATLTVDKSSSTAYMELRSLTSEDSAVYFCAREGNYYAYDVRVWYFDVWGTGTTVTVSS
VL: DIQMTQSPASLSVSVGETVTITCRSSENIYSNLAWYQQKQGKSPQLLVYAATNLADGVPSRFSGSGSGTQYSLKINSLQSEDFGSYYCQHFWGTPWTFGGGTKLEIKR
Regarding B4, the EC50 in assay [9] came out at 2.15 nM; in [5], 2.13 nM.

B5: HFB3-1hz6-hG1 (humanized monoclonal antibody) (antibody, V domains shown)
VH: QVQLVQSGAELKKPGASVKVSCKASSYSFTDYNMNWVRQAPGQSLEWMGIIFPKYGTTSYAQKLQGRVTLTTDTSTSTAYMELRSLRSDDTAVYYCATDGGTWYFDVWGTGTTVTVSS
VL: DIQLTQSPSFLSASVGDRVTITCRASSSVTYMYWYQQKPGKAPKPWIYLTSNLASGVPSRFSGSGSGTEYTLTISSLQPEDAATYYCQQWSSNPPTFGSGTKLEIKR
B5: in [2], the dissociation constant Kd turned out to be 15.2 nM. Besides, the values for the concentration for a half-maximal effect (EC50) in assay [3] and in [7] were 19.1 nM and 4.07 nM, respectively.

These data come from patent US20230045791A1 (published 2023).
